Measurements from publication PMC6769930, “Endoglin Protein Interactome Profiling Identifies TRIM21 and Galectin-3 as New Binding Partners” (Cells, 2019).

Key:
Assay in all cases: peptide or protein array; ProtoArray human protein Microarray v5.0 (over 9000 human proteins arrayed) probed with recombinant sEng in two replicates; detection with anti-endoglin mAb SN6h and HRP secondary antibody; hits with Z-score >=2.0 in both arrays
Settings in all cases: both partners purified
[1] = molecular target: T1, Cell cycle associated protein 1 (CAPRIN1), transcript variant 1 (human, UniProt Q14444-1 1-709)
T1 construct: human CAPRIN1, transcript variant 1; source: bought: ProtoArray human protein Microarray v5.0 (Life Technologies), individually purified and arrayed
T1 sequence (looked up): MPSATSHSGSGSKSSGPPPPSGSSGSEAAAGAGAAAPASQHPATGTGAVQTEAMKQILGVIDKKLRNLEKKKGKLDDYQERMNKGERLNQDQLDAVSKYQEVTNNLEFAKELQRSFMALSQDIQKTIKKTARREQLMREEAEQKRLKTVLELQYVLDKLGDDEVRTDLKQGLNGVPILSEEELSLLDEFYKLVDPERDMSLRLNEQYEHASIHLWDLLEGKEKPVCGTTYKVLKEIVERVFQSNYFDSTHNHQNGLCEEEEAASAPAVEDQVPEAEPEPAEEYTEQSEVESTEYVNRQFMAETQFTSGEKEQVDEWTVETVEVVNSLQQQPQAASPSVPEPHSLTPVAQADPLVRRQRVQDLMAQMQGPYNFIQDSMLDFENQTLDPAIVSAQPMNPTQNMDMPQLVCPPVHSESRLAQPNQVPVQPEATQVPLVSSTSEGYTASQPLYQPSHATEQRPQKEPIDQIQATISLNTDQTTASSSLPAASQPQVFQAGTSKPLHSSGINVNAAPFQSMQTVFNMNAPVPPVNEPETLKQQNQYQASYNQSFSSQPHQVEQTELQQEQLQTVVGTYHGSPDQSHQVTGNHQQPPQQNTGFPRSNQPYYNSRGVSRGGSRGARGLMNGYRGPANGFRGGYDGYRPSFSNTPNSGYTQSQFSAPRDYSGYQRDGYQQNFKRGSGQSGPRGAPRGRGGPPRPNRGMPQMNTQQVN

[2] = molecular target: RNA polymerase-associated protein RTF1 homolog (RTF1) (human, UniProt Q92541 1-710)
[3] = molecular target: T2, Lamin A/C (LMNA), transcript variant 2 (human, UniProt P02545-2 1-572)
T2 construct: source: bought: ProtoArray human protein Microarray v5.0 (Life Technologies), individually purified and arrayed
T2 sequence (looked up): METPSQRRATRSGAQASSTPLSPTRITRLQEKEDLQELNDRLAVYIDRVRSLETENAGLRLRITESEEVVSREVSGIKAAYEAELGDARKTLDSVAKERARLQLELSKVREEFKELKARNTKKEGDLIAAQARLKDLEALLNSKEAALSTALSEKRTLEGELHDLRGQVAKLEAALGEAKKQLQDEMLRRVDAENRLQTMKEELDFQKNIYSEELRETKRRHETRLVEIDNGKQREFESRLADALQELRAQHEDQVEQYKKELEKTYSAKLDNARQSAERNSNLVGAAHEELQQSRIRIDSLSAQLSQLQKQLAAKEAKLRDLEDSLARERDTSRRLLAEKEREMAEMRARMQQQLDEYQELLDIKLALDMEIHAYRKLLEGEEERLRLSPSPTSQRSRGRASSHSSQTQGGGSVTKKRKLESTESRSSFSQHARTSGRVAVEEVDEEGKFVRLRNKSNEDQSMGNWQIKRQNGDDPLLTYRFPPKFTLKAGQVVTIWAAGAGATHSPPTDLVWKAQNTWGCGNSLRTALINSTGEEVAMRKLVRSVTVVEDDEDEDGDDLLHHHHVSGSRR

[4] = molecular target: T3, YTH domain family, member 2 (YTHDF2) (human, UniProt Q9Y5A9 1-579)
T3 construct: human YTHDF2; source: bought: ProtoArray human protein Microarray v5.0 (Life Technologies), individually purified and arrayed
T3 sequence (looked up): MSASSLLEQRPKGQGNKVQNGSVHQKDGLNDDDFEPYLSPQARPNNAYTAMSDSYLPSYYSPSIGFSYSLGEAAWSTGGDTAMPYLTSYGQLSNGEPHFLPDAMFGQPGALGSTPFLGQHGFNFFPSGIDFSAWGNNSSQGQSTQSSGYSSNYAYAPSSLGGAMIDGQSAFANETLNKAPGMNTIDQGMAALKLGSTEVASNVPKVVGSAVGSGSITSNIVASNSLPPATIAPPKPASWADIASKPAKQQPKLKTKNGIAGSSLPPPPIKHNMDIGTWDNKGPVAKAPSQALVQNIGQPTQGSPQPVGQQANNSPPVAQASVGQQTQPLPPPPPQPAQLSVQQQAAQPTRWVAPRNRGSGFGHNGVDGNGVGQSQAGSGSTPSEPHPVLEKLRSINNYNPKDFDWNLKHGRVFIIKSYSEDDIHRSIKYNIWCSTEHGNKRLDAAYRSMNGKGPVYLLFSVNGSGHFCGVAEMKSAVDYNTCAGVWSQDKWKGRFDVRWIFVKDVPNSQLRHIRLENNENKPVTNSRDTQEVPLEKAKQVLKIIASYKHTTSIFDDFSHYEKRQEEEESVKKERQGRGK

binding result [1]: binds
binding result [2]: binds
binding result [3]: binds
binding result [4]: binds
B1: recombinant human soluble endoglin (sEng; Glu26-Gly586) (domain or fragment, UniProt P17813 26-586, looked up)
chain: ETVHCDLQPVGPERGEVTYTTSQVSKGCVAQAPNAILEVHVLFLEFPTGPSQLELTLQASKQNGTWPREVLLVLSVNSSVFLHLQALGIPLHLAYNSSLVTFQEPPGVNTTELPSFPKTQILEWAAERGPITSAAELNDPQSILLRLGQAQGSLSFCMLEASQDMGRTLEWRPRTPALVRGCHLEGVAGHKEAHILRVLPGHSAGPRTVTVKVELSCAPGDLDAVLILQGPPYVSWLIDANHNMQIWTTGEYSFKIFPEKNIRGFKLPDTPQGLLGEARMLNASIVASFVELPLASIVSLHASSCGGRLQTSPAPIQTTPPKDTCSPELLMSLIQTKCADDAMTLVLKKELVAHLKCTITGLTFWDPSCEAEDRGDKFVLRSAYSSCGMQVSASMISNEAVVNILSSSSPQRKKVHCLNMDSLSFQLGLYLSPHFLQASNTIEPGQQSFVQVRVSPSVSEFLLQLDSCHLDLGPEGGTVELIQGRAAKGNCVSLLSPSPEGDPRFSFLLHFYTVPIPKTGTLSCTVALRPKTGSQDQEVHRTVFMRLNIISPDLSGCTSKG
notes: human endoglin (CD105), extracellular domain, Glu26-Gly586; The same bought protein was the probe of the array and the analyte of the BLI; also called recombinant human endoglin/CD105 protein; source: bought: R&D Systems (1097-EN), purified recombinant
